From patent US20220125891

Tested on: T1, FLAG-tagged Regnase-1 AA mutant (S435A/S439A) from Regnase-1-deficient MEFs
T1 sequence: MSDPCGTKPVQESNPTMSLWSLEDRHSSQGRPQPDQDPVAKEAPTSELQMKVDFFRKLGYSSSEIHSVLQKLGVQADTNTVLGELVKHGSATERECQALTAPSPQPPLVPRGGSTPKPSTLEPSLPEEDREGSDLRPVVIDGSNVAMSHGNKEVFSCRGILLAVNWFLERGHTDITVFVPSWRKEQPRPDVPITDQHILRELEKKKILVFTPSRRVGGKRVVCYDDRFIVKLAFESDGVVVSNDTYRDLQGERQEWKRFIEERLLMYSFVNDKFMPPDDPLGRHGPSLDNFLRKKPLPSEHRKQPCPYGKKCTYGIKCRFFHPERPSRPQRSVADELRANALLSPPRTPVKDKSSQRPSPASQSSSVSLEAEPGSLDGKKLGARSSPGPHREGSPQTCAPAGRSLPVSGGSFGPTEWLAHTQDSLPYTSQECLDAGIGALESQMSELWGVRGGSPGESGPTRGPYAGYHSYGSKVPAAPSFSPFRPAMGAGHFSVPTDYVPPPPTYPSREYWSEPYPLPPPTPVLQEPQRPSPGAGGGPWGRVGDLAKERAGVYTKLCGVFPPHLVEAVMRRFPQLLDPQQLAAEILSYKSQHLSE

GST-tagged TBK1 (Sigma)
in vitro phosphorylation (mobility shift by immunoblotting, 32P autoradiography): Phosphorylation of recombinant Regnase-1 by recombinant TBK1 and/or IKKi under in vitro conditions was detected

GST-tagged IKKi (Thermo Fisher Scientific)
in vitro phosphorylation (mobility shift by immunoblotting, 32P autoradiography): Phosphorylation of recombinant Regnase-1 by recombinant TBK1 and/or IKKi under in vitro conditions was detected
